Reference: US20030069395A1 (DYAX, published 2003)
Bridges are numbered along the chain shown (N, C = ends). Where no end group is shown, it is not given here. [ ]: non-standard residue; d: D form. fluorescein = fluorescein label; Ahx = NCCCCCC(=O)O

Legend:
[1] = target: T1, human serum albumin (HSA) (human, UniProt P02768 25-609); test: fluorescence anisotropy; pH 7.4, 0.14 M NaCl, 0.1% caprylate
T1 construct: also called caprylate-biotinylated-HSA
Experimental: (§1) Affinity determinations were made by first labeling polypeptides on the C-terminal end with NHS-fluorescein. Fluorescence anisotropy measurements were performed in 384-well microplates in a volume of 10 μl in binding buffer using a Tecan Polarion fluorescence polarization plate reader. The concentration of fluorescein labeled peptide was held constant (20 nM), and the concentration of HSA was varied. For pH 6.2, 7.1, and 7.4 binding conditions, a 3 mM phosphate, 0.01% Tween-20 buffer was used. For pH 9.1 binding conditions, a 3 mM sodium bicarbonate buffer, 0.01% Tween-20 nonionic detergent buffer was used. Once NaCl was added to any of these buffers, their pH was adjusted again to achieve the original pH. The binding mixtures were equilibrated for 10 minutes in the microplate at 30° C. prior to performing the measurement. The observed change in anisotropy was fit to the equation below via nonlinear regression to obtain the apparent KD. This equation assumes that the peptide and HSA form a reversible complex with 1:1 stoichiometry.
Once all the positive phage isolates were sequenced, peptides corresponding to the display peptide were synthesized. A small amount of constant phage sequence surrounding each varied amino acid sequence region was retained and either a -GGGK-NH₂ (SEQ ID NO: 24) amino acid sequence or -X-K-NH₂ C-terminal tail was added to each peptide, where X is 6-aminohexanoic acid and K-NH₂ is an amidated terminal lysine residue. The constant phage sequence was retained because these residues can often play a role in target binding. To determine its affinity for HSA , each peptide was labeled with fluorescein on the C-terminal lysine side chain.

[2] = target: T1, human serum albumin (HSA); test: fluorescence anisotropy; pH 6.2, 0.14 M NaCl, no caprylate
Experimental: as §1

[3] = target: rabbit serum albumin (Rabbit, UniProt P49065 25-608); test: fluorescence anisotropy; 3 mM phosphate, pH 6.2, 0 M NaCl
[4] = target: pig serum albumin (Pig, UniProt P08835 25-607); test: as above
[5] = target: T2, chicken ovalbumin (Chicken, UniProt P01012 2-386); test: fluorescence anisotropy; 3 mM phosphate, pH 6.2, 0 M NaCl; negative control
T2 construct: Negative control; also called Chicken (egg)
T2 sequence (looked up): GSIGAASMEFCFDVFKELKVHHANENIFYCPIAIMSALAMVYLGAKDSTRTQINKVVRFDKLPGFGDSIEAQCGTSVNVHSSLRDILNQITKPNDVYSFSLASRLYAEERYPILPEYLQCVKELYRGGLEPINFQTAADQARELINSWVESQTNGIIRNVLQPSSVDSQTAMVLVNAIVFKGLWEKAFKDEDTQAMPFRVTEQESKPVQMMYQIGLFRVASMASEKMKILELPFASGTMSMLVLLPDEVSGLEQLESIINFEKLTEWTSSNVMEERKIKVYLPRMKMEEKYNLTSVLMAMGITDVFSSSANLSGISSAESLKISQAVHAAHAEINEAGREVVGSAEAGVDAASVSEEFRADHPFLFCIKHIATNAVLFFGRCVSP

[6] = target: T2, chicken ovalbumin; test: fluorescence anisotropy; PBS, pH 7.4, 0.14 M NaCl; negative control
[7] = target: T1, human serum albumin (HSA); test: fluoresceinated peptide; 3 mM phosphate buffer, pH 6.2, no salt
Experimental: as §1
(§2) Each of the polypeptides was fluoresceinated and tested for binding against an immobilized HSA target as described above.

[8] = target: T1, human serum albumin (HSA); test: fluoresceinated peptide; PBS
Experimental: as §1, §2

[9] = target: T1, human serum albumin (HSA); test: fluorescence anisotropy; buffer not named in Table 2
[10] = target: T1, human serum albumin (HSA); test: fluorescence anisotropy, truncated peptides
Experimental: as §1

[11] = target: T1, human serum albumin (HSA); test: fluorescence anisotropy; pH 7.4, 0.14 M NaCl, no caprylate
Experimental: as §1

[12] = target: T1, human serum albumin (HSA); test: fluorescence anisotropy; pH 9.1, 0.14 M NaCl (as the head marks it), no caprylate
Experimental: as §1

[13] = target: T1, human serum albumin (HSA); test: phage ELISA on caprylate-biotinylated HSA held on streptavidin wells; TN12/1 solution-capture selection

rabbit serum albumin, sequence (P49065 25-608 limits assumed): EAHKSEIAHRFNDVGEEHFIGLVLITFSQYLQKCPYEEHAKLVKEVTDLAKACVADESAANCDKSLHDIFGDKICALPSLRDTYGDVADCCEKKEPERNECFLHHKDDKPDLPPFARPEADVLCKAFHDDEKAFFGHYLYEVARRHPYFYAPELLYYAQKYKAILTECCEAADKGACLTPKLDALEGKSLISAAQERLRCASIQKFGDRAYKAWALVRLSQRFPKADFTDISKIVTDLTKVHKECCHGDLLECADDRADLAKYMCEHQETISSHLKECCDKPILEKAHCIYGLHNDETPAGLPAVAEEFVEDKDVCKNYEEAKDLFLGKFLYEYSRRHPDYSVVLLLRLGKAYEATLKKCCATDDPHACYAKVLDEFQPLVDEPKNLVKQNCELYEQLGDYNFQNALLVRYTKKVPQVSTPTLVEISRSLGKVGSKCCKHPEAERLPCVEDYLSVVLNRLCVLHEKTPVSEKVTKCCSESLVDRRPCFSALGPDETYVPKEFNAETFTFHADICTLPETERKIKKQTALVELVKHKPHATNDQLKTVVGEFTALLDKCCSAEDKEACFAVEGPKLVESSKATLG
pig serum albumin, sequence (P08835 25-607 limits assumed): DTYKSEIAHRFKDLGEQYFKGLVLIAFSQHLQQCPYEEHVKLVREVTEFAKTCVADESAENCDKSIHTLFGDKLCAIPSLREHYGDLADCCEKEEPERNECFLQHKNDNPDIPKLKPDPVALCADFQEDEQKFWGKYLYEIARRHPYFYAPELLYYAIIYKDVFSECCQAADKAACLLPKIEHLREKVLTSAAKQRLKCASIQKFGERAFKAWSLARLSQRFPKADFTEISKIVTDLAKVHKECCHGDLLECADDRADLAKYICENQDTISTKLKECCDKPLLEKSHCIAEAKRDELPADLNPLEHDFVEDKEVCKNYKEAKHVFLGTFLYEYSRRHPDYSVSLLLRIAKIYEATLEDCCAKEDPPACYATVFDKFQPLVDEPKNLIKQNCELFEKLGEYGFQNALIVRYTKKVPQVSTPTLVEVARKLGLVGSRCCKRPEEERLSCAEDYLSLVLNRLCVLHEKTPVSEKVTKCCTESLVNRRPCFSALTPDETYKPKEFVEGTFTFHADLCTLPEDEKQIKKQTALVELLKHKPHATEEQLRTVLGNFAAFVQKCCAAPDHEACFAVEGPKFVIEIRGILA

Ac-AEGTGSHVGCNNALCMQYAPE[Ahx]K(fluorescein)-NH2 (disulfide 10-15) [DX-296, Ac-AEGTGSHVGCNNALCMQYAPE-X-K-NH2]
Kd [1]: > 200 µM
Kd [2]: > 100 µM

Ac-AEGTGDFWFCDRIAWYPQHLCEFLDPEGGGK-NH2 (not fully specified; cysteine pairing not given here) [DX-236, Ac-AEGTGDFWFCDRIAWYPQHLCEFLDPEGGGK-NH2]
Kd [3]: 0.5 µM
Kd [4]: 0.5 µM
Kd [5]: > 200 µM
Kd [6]: > 200 µM

Ac-AEGTGDFWFCDAIAWYPQHLCEFLDPEGGGK-NH2 (cysteine pairing not given here; also: fluoresceinated, site not given here) [alanine mutant of DX-236, Ac-AEGTGDFWFCDAIAWYPQHLCEFLDPEGGGK-NH2]
Kd [7]: 1.5 µM

Ac-AEGTGDFAFCDRIAWYPQHLCEFLDPEGGGK-NH2 (cysteine pairing not given here; also: fluoresceinated, site not given here) [alanine mutant of DX-236, Ac-AEGTGDFAFCDRIAWYPQHLCEFLDPEGGGK-NH2]
Kd [7]: 2.3 µM

B1: alanine mutant of DX-236, Ac-AEGTGDFWFCDRIAWYPQHACEFLDPEGGGK-NH2 (peptide)
peptide: Ac-AEGTGDFWFCDRIAWYPQHACEFLDPEGGGK-NH2
modifications: cysteine pairing not given here; also: fluorescein label, position not given here
Kd [7]: 2 µM

Ac-AEGTGDFWFCDRIAAYPQHLCEFLDPEGGGK-NH2 (cysteine pairing not given here; also: fluoresceinated, site not given here) [alanine mutant of DX-236, Ac-AEGTGDFWFCDRIAAYPQHLCEFLDPEGGGK-NH2]
Kd [7]: 1.4 µM

Ac-AEGTGDAWFCDRIAWYPQHLCEFLDPEGGGK-NH2 (cysteine pairing not given here; also: fluoresceinated, site not given here) [alanine mutant of DX-236, Ac-AEGTGDAWFCDRIAWYPQHLCEFLDPEGGGK-NH2]
Kd [7]: 5.1 µM

Ac-AEGTGDFWFCDRIAWAPQHLCEFLDPEGGGK-NH2 (cysteine pairing not given here; also: fluoresceinated, site not given here) [alanine mutant of DX-236, Ac-AEGTGDFWFCDRIAWAPQHLCEFLDPEGGGK-NH2]
Kd [7]: 1.4 µM

Ac-AEGTGDFWFCDRIAWYPAHLCEFLDPEGGGK-NH2 (cysteine pairing not given here; also: fluoresceinated, site not given here) [alanine mutant of DX-236, Ac-AEGTGDFWFCDRIAWYPAHLCEFLDPEGGGK-NH2]
Kd [7]: 2.2 µM

Ac-AEGTGDFWFCARIAWYPQHLCEFLDPEGGGK-NH2 (cysteine pairing not given here; also: fluoresceinated, site not given here) [alanine mutant of DX-236, Ac-AEGTGDFWFCARIAWYPQHLCEFLDPEGGGK-NH2]
Kd [8]: 5 µM

Ac-AEGTGDFWFCDRIAWYAQHLCEFLDPEGGGK-NH2 (cysteine pairing not given here; also: fluoresceinated, site not given here) [alanine mutant of DX-236, Ac-AEGTGDFWFCDRIAWYAQHLCEFLDPEGGGK-NH2]
Kd [7]: 1.3 µM

Ac-AEGTGAFWFCDRIAWYPQHLCEFLDPEGGGK-NH2 (cysteine pairing not given here; also: fluoresceinated, site not given here) [alanine mutant of DX-236, Ac-AEGTGAFWFCDRIAWYPQHLCEFLDPEGGGK-NH2]
Kd [7]: 5.1 µM

B2: truncated peptide of DX-236, Ac-AEGTGDFWFCDRIAWYPQHLCGGGK-NH2 (peptide)
peptide: Ac-AEGTGDFWFCDRIAWYPQHLCGGGK(fluorescein)-NH2
modifications: not fully specified (bridges); printed as Ac-AEGTGDFWFCDRIAWYPQHLCGGGK-NH2; cysteine pairing not given here
Kd [9]: 8.9 µM
fold increase in KD against DX-236 (SEQ ID NO: 19) [10]: ~4 fold

Ac-AEGTGDDWQCVKDWANRRRGCMADDPE[Ahx]K(fluorescein)-NH2 (disulfide 10-21) [DX-319, Ac-AEGTGDDWQCVKDWANRRRGCMADDPE-X-K-NH2]
Kd [11]: > 200 µM
Kd [2]: > 200 µM

Ac-AEGTGSNHGCWHFSCIWDAPE[Ahx]K(fluorescein)-NH2 (disulfide 10-15) [DX-298, Ac-AEGTGSNHGCWHFSCIWDAPE-X-K-NH2]
Kd [12]: > 200 µM
Kd [2]: > 200 µM

B3: phage isolate displaying DWDCVTRWANRDQQCWGP (SEQ ID NO: 247) (peptide)
chain: DWDCVTRWANRDQQCWGP
modifications: not fully specified (bridges); cysteine pairing not given here
notes: Whole phage in the ELISA; not shown: protein III of M13 phage; the display peptide stands at its amino terminus
binding result [13]: binds

Ac-AEGTGSWKVCDHFFCLSPAPE[Ahx]K(fluorescein)-NH2 (disulfide 10-15) [DX-297, Ac-AEGTGSWKVCDHFFCLSPAPE-X-K-NH2]
Kd [11]: > 200 µM
Kd [1]: > 200 µM
Kd [2]: > 200 µM

B4: truncated peptide of DX-236, Ac-FWFCDRIAWYPQHLCEFLDPEGGGK-NH2 (peptide)
peptide: Ac-FWFCDRIAWYPQHLCEFLDPEGGGK(fluorescein)-NH2
modifications: not fully specified (bridges); printed as Ac-FWFCDRIAWYPQHLCEFLDPEGGGK-NH2; cysteine pairing not given here
Kd [9]: 8.9 µM
fold increase in KD against DX-236 (SEQ ID NO: 19) [10]: ~4 fold

Ac-AEGTGDDWDCVTRWANRDQQCWGPDPE[Ahx]K(fluorescein)-NH2 (disulfide 10-21) [DX-313, Ac-AEGTGDDWDCVTRWANRDQQCWGPDPE-X-K-NH2]
Kd [12]: 90 µM
Kd [11]: > 200 µM
Kd [2]: 80 µM

B5: DX-315, Ac-AEGTGDDWDCVTRWANRDQQCWALDPE-X-K-NH2 (peptide)
peptide: Ac-AEGTGDDWDCVTRWANRDQQCWALDPE[Ahx]K(fluorescein)-NH2
modifications: not fully specified (bridges); printed as Ac-AEGTGDDWDCVTRWANRDQQCWALDPE-X-K-NH2; cysteine pairing not given here
Kd [1]: > 100 µM
Kd [2]: > 200 µM
